T1: 6XHis-tagged TgIST-R2 (G365-S420)
T1 chain: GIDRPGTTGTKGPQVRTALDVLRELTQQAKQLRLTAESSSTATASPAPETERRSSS

B1: STAT1cc (STAT1 core fragment, A656C and N658C, locked dimer), tag-free, P42224 E661A (protein)
chain: STVMLDKQKELDSKVRNVKDKVMCIEHEIKSLEDLQDEYDFKCKTLQNREHETNGVAKSDQKQEQLLLKKMYLMLDNKRKEVVHKIIELLNVTELTQNALINDELVEWKRRQQSACIGGPPNACLDQLQNWFTIVAESLQQVRQQLKKLEELEQKYTYEHDPITKNKQVLWDRTFSLFQQLIQSSFVVERQPCMPTHPQRPLVLKTGVQFTVKLRLLVKLQELNYNLKVKVLFDKDVNERNTVKGFRKFNILGTHTKVMNMEESTNGSLAAEFRHLQLKEQKNAGTRTNEGPLIVTEELHSLSFETQLCQPGLVIDLETTSLPVVVISNVSQLPSGWASILWYNMLVAEPRNLSFFLTPPCARWAQLSEVLSWQFSSVTKRGLNVDQLNMLGEKLLGPNASPDGLIPWTRFCKENINDKNFPFWLWIESILELIKKHLLPLWNDGCIMGFISKERERALLKDQQPGTFLLRFSESSREGAITFTWVERSQNGGEPDFHAVEPYTKKELSAVTFPDIIRNYKVMACECIPANPLKYLYPNIDKDHAFGKYYSRPKEAPEPMELDGPKGTGYIKTELISVSEVH
B2: STAT1cc (STAT1 core fragment, A656C and N658C, locked dimer), tag-free, P42224 N622A (protein)
chain: MSQWYELQQLDSKFLEQVHQLYDDSFPMEIRQYLAQWLEKQDWEHAANDVSFATIRFHDLLSQLDDQYSRFSLENNFLLQHNIRKSKRNLQDNFQEDPIQMSMIIYSCLKEERKILENAQRFNQAQSGNIQSTVMLDKQKELDSKVRNVKDKVMCIEHEIKSLEDLQDEYDFKCKTLQNREHETNGVAKSDQKQEQLLLKKMYLMLDNKRKEVVHKIIELLNVTELTQNALINDELVEWKRRQQSACIGGPPNACLDQLQNWFTIVAESLQQVRQQLKKLEELEQKYTYEHDPITKNKQVLWDRTFSLFQQLIQSSFVVERQPCMPTHPQRPLVLKTGVQFTVKLRLLVKLQELNYNLKVKVLFDKDVNERNTVKGFRKFNILGTHTKVMNMEESTNGSLAAEFRHLQLKEQKNAGTRTNEGPLIVTEELHSLSFETQLCQPGLVIDLETTSLPVVVISNVSQLPSGWASILWYNMLVAEPRNLSFFLTPPCARWAQLSEVLSWQFSSVTKRGLNVDQLNMLGEKLLGPNASPDGLIPWTRFCKENINDKNFPFWLWIESILELIKKHLLPLWNDGCIMGFISKERERALLKDQQPGTFLLRFSESSREGAITFTWVERSQAGGEPDFHAVEPYTKKELSAVTFPDIIRNYKVMAAENIPENPLKYLYPNIDKDHAFGKYYSRPKEAPEPMELDGPKGTGYIKTELISVSEVHPSRLQTTDNLLPMSPEEFDEVSRIVGSVEFDSMMNTV
B3: STAT1cc (STAT1 core fragment, A656C and N658C, locked dimer), tag-free, P42224 E657A (protein)
chain: MSQWYELQQLDSKFLEQVHQLYDDSFPMEIRQYLAQWLEKQDWEHAANDVSFATIRFHDLLSQLDDQYSRFSLENNFLLQHNIRKSKRNLQDNFQEDPIQMSMIIYSCLKEERKILENAQRFNQAQSGNIQSTVMLDKQKELDSKVRNVKDKVMCIEHEIKSLEDLQDEYDFKCKTLQNREHETNGVAKSDQKQEQLLLKKMYLMLDNKRKEVVHKIIELLNVTELTQNALINDELVEWKRRQQSACIGGPPNACLDQLQNWFTIVAESLQQVRQQLKKLEELEQKYTYEHDPITKNKQVLWDRTFSLFQQLIQSSFVVERQPCMPTHPQRPLVLKTGVQFTVKLRLLVKLQELNYNLKVKVLFDKDVNERNTVKGFRKFNILGTHTKVMNMEESTNGSLAAEFRHLQLKEQKNAGTRTNEGPLIVTEELHSLSFETQLCQPGLVIDLETTSLPVVVISNVSQLPSGWASILWYNMLVAEPRNLSFFLTPPCARWAQLSEVLSWQFSSVTKRGLNVDQLNMLGEKLLGPNASPDGLIPWTRFCKENINDKNFPFWLWIESILELIKKHLLPLWNDGCIMGFISKERERALLKDQQPGTFLLRFSESSREGAITFTWVERSQNGGEPDFHAVEPYTKKELSAVTFPDIIRNYKVMAAANIPENPLKYLYPNIDKDHAFGKYYSRPKEAPEPMELDGPKGTGYIKTELISVSEVHPSRLQTTDNLLPMSPEEFDEVSRIVGSVEFDSMMNTV

Molecular target: T1, 6XHis-tagged TgIST-R2 (G365-S420)
Experiment: nickel affinity copurification, SDS-PAGE, Coomassie blue band quantification
Conditions: chain shown with the change;; parent: est. 1.0; read off a plot

| Binder | ratio to parent |
| --- | --- |
| B1 | 0.61 |
| B2 | 0.71 |
| B3 | 0.71 |

— PMC9279507
